Experimental data from patent US20220396612A1 (UNIVERSIT DE TOURS, published 2022).

T1: virus-like particles (VLPs) of BK polyomavirus VP-1 protein, serotype Ib2 (BK virus (BKPyV), serotype Ib2, PA …, UniProt P03088 1-362)
T1 construct: native VLPs; also the immunogen; also called VLP Ib2; BK Ib2
T1 chain: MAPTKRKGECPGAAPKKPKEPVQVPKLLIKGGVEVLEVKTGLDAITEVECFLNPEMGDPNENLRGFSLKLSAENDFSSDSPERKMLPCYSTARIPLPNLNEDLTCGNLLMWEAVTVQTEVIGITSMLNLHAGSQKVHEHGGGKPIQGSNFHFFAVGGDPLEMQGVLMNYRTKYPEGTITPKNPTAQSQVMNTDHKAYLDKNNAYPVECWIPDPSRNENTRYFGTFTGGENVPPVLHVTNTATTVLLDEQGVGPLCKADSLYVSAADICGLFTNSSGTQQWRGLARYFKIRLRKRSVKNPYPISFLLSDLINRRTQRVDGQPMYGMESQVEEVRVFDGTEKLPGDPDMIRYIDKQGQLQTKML

T2: virus-like particles (VLPs) of BK polyomavirus VP-1 protein, serotype IV (BK virus (BKPyV), serotype IV, UniProt P14996 1-362)
T2 construct: native VLPs; also called VLP IV
T2 chain: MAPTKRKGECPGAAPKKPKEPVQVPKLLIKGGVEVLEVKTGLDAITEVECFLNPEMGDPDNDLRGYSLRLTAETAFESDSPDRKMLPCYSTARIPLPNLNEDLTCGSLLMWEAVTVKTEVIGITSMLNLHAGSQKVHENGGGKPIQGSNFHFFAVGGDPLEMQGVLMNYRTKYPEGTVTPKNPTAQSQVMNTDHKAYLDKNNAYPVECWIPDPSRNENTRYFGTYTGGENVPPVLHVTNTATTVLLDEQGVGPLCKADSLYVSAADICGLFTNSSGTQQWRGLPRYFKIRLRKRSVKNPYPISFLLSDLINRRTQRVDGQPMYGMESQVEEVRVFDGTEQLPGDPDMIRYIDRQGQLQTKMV

T3: virus-like particles (VLPs) of BK polyomavirus VP-1 protein, serotype Ia (BK virus (BKPyV), serotype Ia, UniProt P03088 1-361)
T3 construct: self-assembled native VLPs coated on ELISA plates; also called VLP Ia; BKV VP-1, serotype Ia
T3 chain: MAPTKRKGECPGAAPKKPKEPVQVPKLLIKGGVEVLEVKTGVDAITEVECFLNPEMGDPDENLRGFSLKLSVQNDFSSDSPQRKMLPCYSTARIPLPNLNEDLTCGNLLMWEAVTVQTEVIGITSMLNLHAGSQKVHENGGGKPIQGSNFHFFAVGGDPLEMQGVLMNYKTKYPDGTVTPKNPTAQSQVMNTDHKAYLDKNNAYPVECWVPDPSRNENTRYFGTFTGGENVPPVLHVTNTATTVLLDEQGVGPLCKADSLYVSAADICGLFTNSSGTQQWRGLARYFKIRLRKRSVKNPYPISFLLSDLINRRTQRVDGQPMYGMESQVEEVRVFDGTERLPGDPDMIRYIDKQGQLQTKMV

T4: virus-like particles (VLPs) of BK polyomavirus VP-1 protein, serotype II (BK virus (BKPyV), serotype II, UniProt P14996 1-362)
T4 construct: native VLPs; also called VLP II
T4 chain: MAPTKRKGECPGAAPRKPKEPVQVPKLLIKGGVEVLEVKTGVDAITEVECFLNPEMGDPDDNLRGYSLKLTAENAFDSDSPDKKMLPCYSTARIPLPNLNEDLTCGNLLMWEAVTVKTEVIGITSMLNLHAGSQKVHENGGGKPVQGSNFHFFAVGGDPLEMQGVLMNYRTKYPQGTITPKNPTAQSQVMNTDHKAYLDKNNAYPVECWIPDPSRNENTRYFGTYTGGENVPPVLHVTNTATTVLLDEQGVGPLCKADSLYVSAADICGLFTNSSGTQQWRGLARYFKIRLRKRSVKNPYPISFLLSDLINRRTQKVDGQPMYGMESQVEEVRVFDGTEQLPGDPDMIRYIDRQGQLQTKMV


How the values were obtained:
[1] = molecular target: T1, virus-like particles (VLPs) of BK …; assay: ELISA on coated VLP; supernatant 1/160
Procedure: (§1) To do this, the VLPs produced were deposited at a concentration of 1 μg/mL in PBS and incubated overnight at +4° C. The wells were then blocked for 1 h at +37° C. with a PBS/FCS (phosphate-buffered saline/fetal calf serum) mixture. After dilution in a dilution buffer containing FCS, PBS and Tween® 20, the various hybridoma culture supernatants were added for 1 h at +37° C. The wells were washed four times in a row with Wash Buffer and a secondary anti-mouse antibody coupled to peroxidase was added to the 1:2000 dilution for 1 h at +37° C. The wells were washed four more times and the substrate (OPD (ortho phenylene diamine)+H₂O₂) was added for 30 min at room temperature. A stop solution (H₂SO₄ 4N) was then added and each well was read by measuring the absorbance at 492 nm with a spectrophotometer. The value obtained for the average of the control wells (PBS in the first step) is subtracted from the optical density values obtained for each well.

[2] = molecular target: T2, virus-like particles (VLPs) of BK …; assay: ELISA on coated VLP; supernatant 1/160
Procedure: as §1

[3] = molecular target: T3, virus-like particles (VLPs) of BK …; assay: ELISA on coated VLP; supernatant 1/160
Procedure: as §1

[4] = molecular target: T4, virus-like particles (VLPs) of BK …; assay: ELISA on coated VLP; supernatant 1/160
Procedure: as §1

[5] = molecular target: T2, virus-like particles (VLPs) of BK …; assay: ELISA on coated VLP; supernatant 1/20
Procedure: as §1

[6] = molecular target: T1, virus-like particles (VLPs) of BK …; assay: ELISA on coated VLP; supernatant 1/10
Procedure: as §1

[7] = molecular target: T2, virus-like particles (VLPs) of BK …; assay: ELISA on coated VLP; supernatant 1/10
Procedure: as §1

[8] = molecular target: T3, virus-like particles (VLPs) of BK …; assay: ELISA on coated VLP; supernatant 1/10
Procedure: as §1

[9] = molecular target: T4, virus-like particles (VLPs) of BK …; assay: ELISA on coated VLP; supernatant 1/10
Procedure: as §1

[10] = molecular target: T1, virus-like particles (VLPs) of BK …; assay: ELISA on coated VLP; supernatant 1/40
Procedure: as §1

[11] = molecular target: T2, virus-like particles (VLPs) of BK …; assay: ELISA on coated VLP; supernatant 1/40
Procedure: as §1

[12] = molecular target: T3, virus-like particles (VLPs) of BK …; assay: ELISA on coated VLP; supernatant 1/40
Procedure: as §1

[13] = molecular target: T4, virus-like particles (VLPs) of BK …; assay: ELISA on coated VLP; supernatant 1/40
Procedure: as §1

Row | Binder | OD 492 nm [1] [OD] | OD 492 nm [2] [OD] | OD 492 nm [3] [OD] | OD 492 nm [4] [OD] | OD 492 nm [5] [OD] | OD 492 nm [6] [OD] | OD 492 nm [7] [OD] | OD 492 nm [8] [OD] | OD 492 nm [9] [OD] | OD 492 nm [10] [OD] | OD 492 nm [11] [OD] | OD 492 nm [12] [OD] | OD 492 nm [13] [OD]
1 | monoclonal antibody ‘H6’ secreted by clone BK6A2H6 (antibody, V domains shown) VH: EVQLQQSGPELVKPGASVKISCKASGYSFTGYFMNWVKQSHGKSLEWIGRINPYNGDTFYNQKFKGKATLTVDKSSSTAHMELLSLTSEDSAVYYCGSYYYGDYFDYWGQGTTLTVSS VL: SIVMTQIPKFLLVSEGDRVTITCKASQSVSNDVAWYQQKSGQSPKLLIYYASNRYTGVPDRFTGSGYGTDFTFTISTVQAEDLAVYFCQQDYSSPLTFGAGTKLELKR | 0.4 | 3.14 | 3.06 | 0.14 | 3.21 | 1.71 | 3.29 | 2.99 | 2.96 | 0.67 | 3.38 | 3.18 | 0.44
2 | monoclonal antibody ‘F6’ secreted by clone BK6A2F6 (antibody) heavy: EVQLQQSGPELVKPGASVKISCKASGYSFTGYFMNWVKQSHGKSLEWIGRINPYNGDTFYNQKFKGKATLTVDKSSSTAHMELLSLTSEDSAVYYCGSYYYGDYFDYWGQGTTLTVSSAKTTPPSVYPLAPGSAAQTNSMVTLGCLVKGYFPEPVTVTWNSGSLSSGVHTFPAVLQSDLYTLSSSVTVPSSTWPSETVTCNVAHPASSTKVDKKIVPRDCGCKPCICTVPEVSSVFIFPPKPKDVLTITLTPKVTCVVVDISKDDPEVQFSWFVDDVEVHTAQTQPREEQFNSTFRSVSELPIMHQDWLNGKEFKCRVNSAAFPAPIEKTISKTKGRPKAPQVYTIPPPKEQMAKDKVSLTCMITDFFPEDITVEWQWNGQPAENYKNTQPIMDTDGSYFVYSKLNVQKSNWEAGNTFTCSVLHEGLHNHHTEKSLSHSPGK light: […] | 0.4 | 3.46 | 3.21 | 0.27 | 3.16 | 2.7 | 3.25 | 3.08 | 3 | 1.03 | 3.19 | 3.16 | 0.9
